Experimental data from US20040176285A1, “Tip39 polypeptides” (priority 2001, published 2004).
“Also recorded” adds a separate entry of the source. Values belong to the molecule of their own block, whether it stands above or below them. Where a SMILES comes first, the peptide text is derived from it. Where no end group is shown, it is not given here.

Key:
human PTH2 receptor [1] = biological target: T1, human PTH2 receptor (Homo sapiens, UniProt P49190); assay: Ligand-stimulated cAMP accumulation in hPR2-20 LLCPK1 cells; type: cell-based
T1 construct: expressed in transfected cells

human PTH2 receptor [2] = biological target: T1, human PTH2 receptor; assay: Inhibition of agonist-stimulated cAMP accumulation in hPR2-20 LLCPK1 cells; type: cell-based
Excerpt: FIG. 8. […] Data are expressed as % of half-maximal cAMP accumulation and represent the results (mean±SE) of at least three independent experiments.

PTH1R [3] = biological target: T2, PTH1R (Homo sapiens, UniProt Q03431); assay: Ligand-stimulated cAMP accumulation in HKrk-B7 cells; type: cell-based; parameters: expressed in transfected cells; conditions: HKrk-B7 cells
T2 sequence (Q03431 27-593): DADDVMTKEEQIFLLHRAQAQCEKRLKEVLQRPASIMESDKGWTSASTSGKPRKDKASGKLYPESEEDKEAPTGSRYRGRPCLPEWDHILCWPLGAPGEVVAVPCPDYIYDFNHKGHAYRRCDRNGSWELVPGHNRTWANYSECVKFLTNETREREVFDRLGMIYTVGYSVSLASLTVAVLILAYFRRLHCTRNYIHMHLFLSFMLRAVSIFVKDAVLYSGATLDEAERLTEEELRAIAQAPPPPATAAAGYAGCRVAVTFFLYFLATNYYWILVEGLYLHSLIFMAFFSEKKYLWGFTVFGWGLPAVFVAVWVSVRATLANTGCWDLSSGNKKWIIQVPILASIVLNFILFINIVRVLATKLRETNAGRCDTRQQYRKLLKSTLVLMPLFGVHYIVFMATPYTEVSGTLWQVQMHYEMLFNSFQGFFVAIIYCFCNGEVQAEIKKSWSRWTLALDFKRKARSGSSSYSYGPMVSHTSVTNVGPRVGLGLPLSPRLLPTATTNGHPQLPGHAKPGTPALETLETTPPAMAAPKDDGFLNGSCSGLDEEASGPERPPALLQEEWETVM
Experimental: DMEM, Trypsin/EDTA, and penicillin G/streptomycin and horse serum were from Gibco/BRL, Life Technologies, Gaithersburg, Md. LLC-PK, expressing the recombinant human PTH1R (HKrk-B7 cells) and SaOS-2 cells expressing the wild-type PTH1R endogenously were cultured in DMEM supplemented with 10% heat-inactivated fetal bovine serum, 100 U/ml penicillin, 100 μg/ml streptomycin, as previously described (Gardella, T. J., et al., J. Biol. Chem. 271:19888-19893 (1996); Fukayama, S., et al., Endocrinology 134:1851-1858 (1994)); both cell lines were maintained in a humidified atmosphere containing 95% air and 5% CO2. After seeding, medium was replaced daily, until cells were used for radioligand binding or cAMP accumulation assays.
Na^125I (specific activity: 2,000 Ci/mmol) was purchased from DuPont/NEN, Boston, Mass. Fetal bovine serum, 3-isobutyl-1-methyl-xanthine (IBMX), and BSA were from Sigma, St. Louis, Mo., and trifluoroacetic acid (TFA) was from Pierce, Rockford, Ill. Radiolabeled rPTH(1-34) and PTHrP(1-36) were prepared by the chloramine-T method, followed by HPLC purification using a 30-50% ACN/0.1% TFA gradient over 30 minutes; radioreceptor assays were performed in 24-well plates as previously described (Gardella, T. J., et al., J. Biol. Chem. 271:19888-19893 (1996); Fukayama, S. et al., Endocrinology 134:1851-1858 (1994)). In brief, each well (final volume 500 μl) contained binding buffer (BB; 50 mM Tris-HCl (pH 7.7), 100 mM NaCl, 5 mM KCl, 2 mM CaCl2, 5% heat-inactivated horse serum, and 0.5% heat-inactivated fetal bovine serum), the ^125I-labeled PTH or PTHrP analog (100,000 to 200,000 cpm) was incubated in the absence or presence of increasing concentrations of unlabeled peptides. After 4 h at 16° C., buffer was completely removed, the cells were rinsed with cold BB and lysed with 1 M NaOH. The entire lysate was counted for γ-irradiation. Specific binding was determined after subtracting radioactivity bound in the presence of maximal concentrations of unlabeled competing peptide (10^−6 M). Agonist-dependent stimulation of cAMP accumulation by HKrk-B7 and SaOS-2 cells (48-well plates; stimulation at room temperature for 45 minutes) and the subsequent measurement of cAMP by radioimmunoassay was performed as previously described (Gardella, T. J., et al., J. Biol. Chem. 271:19888-19893 (1996); Bergwitz, C., et al., Endocrinology 139:723-732 (1998)). Data were analyzed and graphically illustrated using the graph-pad prism software package.
The values for EC50 and Vmax (mean±SE) are derived from at least three independent experiments.

PTH1R [4] = biological target: T2, PTH1R; assay: Inhibition of agonist-stimulated cAMP accumulation in SaOS-2 cells; type: cell-based; parameters: expressed in transfected cells; conditions: SaOS-2 cells (stated for both cell lines); agonists 0.15-0.3 nM
Excerpt: FIG. 4A-4F. Inhibition of agonist-stimulated cAMP accumulation in HKrk-B7 cells (FIG. 4A-4C) or SaOS-2 cells (FIG. 4D-4F). […] Data are expressed as % of half-maximal cAMP accumulation and represent the results (mean±SE) of at least three independent experiments.
Na^125I (specific activity: 2,000 Ci/mmol) was purchased from DuPont/NEN, Boston, Mass. Fetal bovine serum, 3-isobutyl-1-methyl-xanthine (IBMX), and BSA were from Sigma, St. Louis, Mo., and trifluoroacetic acid (TFA) was from Pierce, Rockford, Ill. Radiolabeled rPTH(1-34) and PTHrP(1-36) were prepared by the chloramine-T method, followed by HPLC purification using a 30-50% ACN/0.1% TFA gradient over 30 minutes; radioreceptor assays were performed in 24-well plates as previously described (Gardella, T. J., et al., J. Biol. Chem. 271:19888-19893 (1996); Fukayama, S. et al., Endocrinology 134:1851-1858 (1994)). […] The entire lysate was counted for γ-irradiation. Specific binding was determined after subtracting radioactivity bound in the presence of maximal concentrations of unlabeled competing peptide (10^−6 M). […] Data were analyzed and graphically illustrated using the graph-pad prism software package.

[5] = biological target: T3, human PTH/PTHrP receptor (PTH1R) (human, UniProt Q03431 27-593); assay: radioreceptor competition on HKrk-B7 cells
T3 construct: whole, on cells; HKrk-B7 cells about 10^6 receptors/cell; SaOS-2 about 30,000 receptors/cell; also called hPTH-1 receptor; PTH-1 receptor
T3 sequence (looked up): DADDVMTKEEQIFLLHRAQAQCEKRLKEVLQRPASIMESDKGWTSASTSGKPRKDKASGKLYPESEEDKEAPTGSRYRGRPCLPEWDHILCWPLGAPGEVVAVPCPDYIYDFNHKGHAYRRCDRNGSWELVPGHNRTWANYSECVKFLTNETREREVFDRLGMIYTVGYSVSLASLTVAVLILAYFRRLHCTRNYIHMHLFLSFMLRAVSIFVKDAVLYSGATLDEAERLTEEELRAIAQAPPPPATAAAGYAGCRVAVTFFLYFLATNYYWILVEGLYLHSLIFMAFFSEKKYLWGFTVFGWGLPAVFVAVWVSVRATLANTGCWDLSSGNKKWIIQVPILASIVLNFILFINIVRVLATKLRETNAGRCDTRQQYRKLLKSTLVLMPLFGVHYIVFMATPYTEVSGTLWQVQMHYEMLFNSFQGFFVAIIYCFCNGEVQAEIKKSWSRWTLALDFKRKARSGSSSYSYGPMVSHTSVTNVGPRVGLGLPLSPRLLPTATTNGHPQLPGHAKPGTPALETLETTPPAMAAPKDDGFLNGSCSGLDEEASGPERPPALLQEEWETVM
Experimental: (§1) Specific binding was determined after subtracting radioactivity bound in the presence of maximal concentrations of unlabeled competing peptide (10⁻⁶ M). Agonist-dependent stimulation of cAMP accumulation by HKrk-B7 and SaOS-2 cells (48-well plates; stimulation at room temperature for 45 minutes) and the subsequent measurement of cAMP by radioimmunoassay was performed as previously described (Gardella, T. J., et al., J. Biol. Chem. 271:19888-19893 (1996); Bergwitz, C., et al., Endocrinology 139:723-732 (1998)). Data were analyzed and graphically illustrated using the graph-pad prism software package.

[6] = biological target: T3, human PTH/PTHrP receptor (PTH1R); assay: radioreceptor competition on HKrk-B7 cells; either tracer
Experimental: as §1

[7] = biological target: T3, human PTH/PTHrP receptor (PTH1R); assay: radioreceptor competition on HKrk-B7 cells; tracer 125I-[Tyr36]PTHrP(1-36)amide
Experimental: (§2) Na¹²⁵I (specific activity: 2,000 Ci/mmol) was purchased from DuPont/NEN, Boston, Mass. Fetal bovine serum, 3-isobutyl-1-methyl-xanthine (IBMX), and BSA were from Sigma, St. Louis, Mo., and trifluoroacetic acid (TFA) was from Pierce, Rockford, Ill. […] After 4 h at 16° C., buffer was completely removed, the cells were rinsed with cold BB and lysed with 1 M NaOH. The entire lysate was counted for γ-irradiation. Specific binding was determined after subtracting radioactivity bound in the presence of maximal concentrations of unlabeled competing peptide (10⁻⁶ M). Agonist-dependent stimulation of cAMP accumulation by HKrk-B7 and SaOS-2 cells (48-well plates; stimulation at room temperature for 45 minutes) and the subsequent measurement of cAMP by radioimmunoassay was performed as previously described (Gardella, T. J., et al., J. Biol. Chem. 271:19888-19893 (1996); Bergwitz, C., et al., Endocrinology 139:723-732 (1998)). Data were analyzed and graphically illustrated using the graph-pad prism software package.

[8] = biological target: T3, human PTH/PTHrP receptor (PTH1R); assay: radioreceptor competition on HKrk-B7 cells; tracer 125I-rat [Nle8,21,Tyr34]PTH(1-34)amide
Experimental: as §2

[9] = biological target: T3, human PTH/PTHrP receptor (PTH1R); assay: radioreceptor competition on HKrk-B7 cells, 125I-rPTH(1-34) or 125I-PTHrP(1-36)
Experimental: as §2

T1 sequence (P49190 25-550): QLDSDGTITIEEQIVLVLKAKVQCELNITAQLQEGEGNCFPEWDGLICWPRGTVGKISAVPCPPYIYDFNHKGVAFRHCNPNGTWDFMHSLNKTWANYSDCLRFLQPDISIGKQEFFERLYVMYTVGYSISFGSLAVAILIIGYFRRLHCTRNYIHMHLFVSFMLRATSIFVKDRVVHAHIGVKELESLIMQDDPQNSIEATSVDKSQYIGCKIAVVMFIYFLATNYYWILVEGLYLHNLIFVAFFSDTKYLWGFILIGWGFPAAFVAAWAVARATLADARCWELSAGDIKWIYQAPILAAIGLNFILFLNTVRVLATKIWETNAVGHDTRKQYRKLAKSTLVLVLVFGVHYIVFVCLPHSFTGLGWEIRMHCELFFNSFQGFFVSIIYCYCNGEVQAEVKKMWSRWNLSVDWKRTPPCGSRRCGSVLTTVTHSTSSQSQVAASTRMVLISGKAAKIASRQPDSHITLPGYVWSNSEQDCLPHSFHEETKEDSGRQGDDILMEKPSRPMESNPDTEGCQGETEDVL

Molecule: ALADDAAFRERARLLAALERRHWLNSYMHKLLVLDAP (not fully specified (C-terminus)) [TIP(3-39)]
fold higher apparent binding affinity in comparison to the parent peptide TIP(1-39) [5]: ~3 fold
fold improvement in apparent binding affinity relative to TIP(1-39) [6]: ≤ 6 fold
IC50 [7]: 68 nM
IC50 [8]: 96 nM

Molecule: ALERRHWLNSYMHKLLVLDAP [TIP(19-39)]
binding result [9]: no binding

Molecule: RHWLNSYMHKLLVLDAP [TIP(23-39)]
binding result [9]: no binding

The next lines start with results.

maximum cAMP accumulation (human PTH2 receptor [1]): 133.7±3.9 pmol/well
Molecule: CSCC[C@H](NC(=O)[C@H](Cc1ccc(O)cc1)NC(=O)[C@H](CO)NC(=O)[C@H](CC(=O)O)NC(=O)[C@H](CC(C)C)NC(=O)[C@H](Cc1c[nH]c2ccccc12)NC(=O)[C@H](CCC(=O)O)NC(=O)[C@H](CCCNC(=N)N)NC(=O)[C@H](CCCNC(=N)N)NC(=O)[C@H](CCC(=O)O)NC(=O)[C@H](CC(C)C)NC(=O)[C@H](C)NC(=O)[C@H](C)NC(=O)[C@H](CC(C)C)NC(=O)[C@H](CC(C)C)NC(=O)[C@H](CCCNC(=N)N)NC(=O)[C@H](C)NC(=O)[C@H](CCCNC(=N)N)NC(=O)[C@H](CCC(=O)O)NC(=O)[C@H](CCCNC(=N)N)NC(=O)[C@H](Cc1ccccc1)NC(=O)[C@H](C)NC(=O)[C@H](C)NC(=O)[C@H](CC(=O)O)NC(=O)[C@H](CC(=O)O)NC(=O)[C@H](C)NC(=O)[C@H](CC(C)C)NC(=O)[C@H](C)NC(=O)[C@H](CC(C)C)NC(=O)[C@@H](N)CO)C(=O)N[C@@H](CCC(N)=O)C(=O)N[C@@H](CCCCN)C(=O)N[C@@H](CC(C)C)C(=O)N[C@@H](CC(C)C)C(=O)N[C@@H](CC(C)C)C(=O)N[C@@H](CC(C)C)C(=O)N[C@@H](CC(=O)O)C(=O)N[C@@H](C)C(=O)N1CCC[C@H]1C(N)=O [mouse TIP39] (H-SLALADDAAFRERARLLAALERREWLDSYMQKLLLLDAP-NH2)

higher antagonist concentration required against human TIP39 than against PTH-(1-34) (human PTH2 receptor [2]; 1 nM of either agonist): approximately 14 fold
antagonism at the PTH2 receptor (in words) (human PTH2 receptor [2]; P2R LLCPK1 cells, FIG. 8): antagonist of the PTH2 receptor
Molecule: CSCC[C@H](NC(=O)[C@H](Cc1ccc(O)cc1)NC(=O)[C@H](CO)NC(=O)[C@H](CC(N)=O)NC(=O)[C@H](CC(C)C)NC(=O)[C@H](Cc1c[nH]c2ccccc12)NC(=O)[C@H](Cc1c[nH]cn1)NC(=O)[C@H](CCCNC(=N)N)NC(=O)[C@H](CCCNC(=N)N)NC(=O)[C@H](CCC(=O)O)NC(=O)[C@H](CC(C)C)NC(=O)[C@H](C)NC(=O)[C@H](C)NC(=O)[C@H](CC(C)C)NC(=O)[C@H](CC(C)C)NC(=O)[C@H](CCCNC(=N)N)NC(=O)[C@H](C)NC(=O)[C@H](CCCNC(=N)N)NC(=O)[C@H](CCC(=O)O)NC(=O)[C@H](CCCNC(=N)N)NC(=O)[C@H](Cc1ccccc1)NC(=O)[C@H](C)N)C(=O)N[C@@H](Cc1c[nH]cn1)C(=O)N[C@@H](CCCCN)C(=O)N[C@@H](CC(C)C)C(=O)N[C@@H](CC(C)C)C(=O)N[C@H](C(=O)N[C@@H](CC(C)C)C(=O)N[C@@H](CC(=O)O)C(=O)N[C@@H](C)C(=O)N1CCC[C@H]1C(N)=O)C(C)C [TIP(9-39)] (H-AFRERARLLAALERRHWLNSYMHKLLVLDAP-NH2)
stimulation of cAMP accumulation at the PTH1R (in words) (PTH1R [3]): lack of second messenger formation; also recorded: failed to stimulate cAMP accumulation
inhibition of agonist actions (in words) (PTH1R [4]): inhibited the actions of the three agonists
